Residue numbers refer to the chain shown, from its start. Like-named read-outs stand apart in the source and are kept apart here. One block for each binder: values may come before it.
Tests used:
human Claudin18.2 [1] = molecular target: T1, human Claudin18.2 (human, UniProt P56856-2 1-261); assay: flow cytometry on Ba/F3-Claudin18.2 cells, purified mouse antibody
T1 construct: whole, on cells; Four-transmembrane protein, always presented on cells (transfected lines or NUGC-4 with endogenous expression); also called CLDN18.2
Procedure: (§1) The affinity of the candidates to Claudin18.2 was measured using FACS. […] Ba/F3-Claudin18.1 and Ba/F3-Claudin18.2 cells were incubated with the purified mouse antibodies at various concentrations on ice for 30 min and mouse IgG was used as negative control (Thermo Fisher, Cat: 31903), followed by washing with FACS buffer (PBS+2% FBS) twice.

human Claudin18.1 [2] = molecular target: T2, human Claudin18.1 (human, UniProt P56856 1-261); assay: FACS titration on Ba/F3-Claudin 18.1 cells
T2 construct: whole, on cells; Presented on transfected cells; also called CLDN18.1
Procedure: as §1

human Claudin18.1 [3] = molecular target: T2, human Claudin18.1; assay: flow cytometry, HEK293T-human Claudin 18.1 cells compared with HEK293T cells
Procedure: The specificity of candidate antibodies was detected by FACS. […] After washing twice with PBS, the cells were resuspended with PBS containing 1% BSA. 300,000 cells for each cell line were added with the candidate antibodies at a final concentration of 1000 nM, mixed well, and incubated for 1 h at 4° C., protected from light. Then the cells were washed for three times with PBS and FITC-labeled anti-human Fc secondary antibody (BioLegend, 409322) was added, followed by 0.5h of incubation at 4° C. in the dark. Detection was performed by flow cytometry (Beckman, Cytoflex) after washing with PBS for three times.

human Claudin18.2 [4] = molecular target: T1, human Claudin18.2; assay: flow cytometry (IntelliCyt) on Ba/F3-Claudin18.2 cells
From the text: In order to evaluate the anti-Claudin18.2 humanized antibodies, codon optimized cDNAs of the heavy chains and the light chains of the candidate humanized antibodies from Example 6 were synthesized and ligated into pcDNA3.4 (by Nanjing Genscript Biotech Corporation). Expi293F cells (purchased from Thermo Incorporation) were co-transfected with pcDNA3.4 coding the heavy chain and light chain of each antibody. The antibodies were purified from the supernatant using protein A (MabSelect SuRe, GE). The affinity of the humanized antibodies to Claudin18.2 was determined using Ba/F3-Claudin18.2 cells which over-expressed human Claudin18.2. Ba/F3-Claudin18.2 cells (60000 in 10 ul buffer) were incubated with purified humanized antibodies on ice for 30 min, followed by washing with buffer (PBS+2% FBS) twice and addition of Alexa647-labeled goat-anti-human IgG Fc antibody (1:500 dilution). The cells were incubated on ice for another 30 min and analyzed by IntelliCyt.

human Claudin18.2 [5] = molecular target: T1, human Claudin18.2; assay: cellular ELISA on fixed L929-Claudin 18.2 cells
Procedure: (§2) Human Claudin18.2 is a four transmembrane protein and has a complex structure. Cellular ELISA was thus carried out to maintain the structure of Claudin18.2. […] The cells were resuspended and adjusted to 2×10⁵/mL and 100 μL of the resuspension was plated into 96 well plate and incubated overnight at 37° C. The next day, the media was removed, and the plate was washed with PBS once. 100 μL/well 4% formaldehyde was added to the plate. After 30 min of incubation at room temperature, formaldehyde was removed, followed by washing twice with PBS. Blocking buffer (PBS containing 2% BSA) was then added to the plate at 100 μL/well, and incubated at 37° C. for 2 h. After removal of blocking buffer, 100 μL/well of serially diluted antibodies (starting from 1 μM, with 4-fold dilution, for a total of 11 concentrations) were added to the corresponding wells, which were incubated at 37° C. for 2h afterwards. The plate was washed with 250 μL PBST for 5 times, and was allowed to stand for 2 min each time. […] The plate was incubated at 37° C. for 1 h and washed with 250 μL PBST 6 times, wherein the plate was allowed to stand for 2 min each time. 100 μL/well of TMB solution (Thermo, 34029) was added. The reactions were incubated at 37° C. for 20 min and stopped with 50 μL 2 mol/L H₂SO₄. The absorbance at 450 nm was read on a plate reader (MD, SpectraMax M2) and the results were subjected to curve fitting by Graphpad Prism.

human Claudin18.2 [6] = molecular target: T1, human Claudin18.2; assay: cell-based or functional assay
human Claudin18.2 [7] = molecular target: T1, human Claudin18.2; assay: cellular ELISA on fixed L929-Claudin 18.2 cells; remark: listed apart in the source
Procedure: as §2, with “The reactions were incubated at 37° C. for 20 min and stopped with 50 μL 2 mol/L H₂SO₄.” left out

human Claudin18.2 [8] = molecular target: T1, human Claudin18.2; assay: cell-based or functional assay; remark: listed apart in the source
human Claudin18.2 [9] = molecular target: T1, human Claudin18.2; assay: cell-based or functional assay; remark: listed apart in the source
human Claudin18.2 [10] = molecular target: T1, human Claudin18.2; assay: cellular ELISA on NUGC-4 cells (endogenous human Claudin18.2)
Procedure: The cells were resuspended and adjusted to 2×10⁵/mL and 100 μL of the resuspension was plated into 96 well plate and incubated overnight at 37° C. The next day, the media was removed, and the plate was washed with PBS once. 100 μL/well 4% formaldehyde was added to the plate. After 30 min of incubation at room temperature, formaldehyde was removed, followed by washing twice with PBS. Blocking buffer (PBS containing 2% BSA) was then added to the plate at 100 μL/well, and incubated at 37° C. for 2 h. After removal of blocking buffer, 100 μL/well of serially diluted antibodies (starting from 1 μM, with 4-fold dilution, for a total of 11 concentrations) were added to the corresponding wells, which were incubated at 37° C. for 2h afterwards. The plate was washed with 250 μL PBST for 5 times, and was allowed to stand for 2 min each time. […] The plate was incubated at 37° C. for 1 h and washed with 250 μL PBST 6 times, wherein the plate was allowed to stand for 2 min each time. 100 μL/well of TMB solution (Thermo, 34029) was added. The reactions were incubated at 37° C. for 20 min and stopped with 50 μL 2 mol/L H₂SO₄. The absorbance at 450 nm was read on a plate reader (MD, SpectraMax M2) and the results were subjected to curve fitting by Graphpad Prism.

human Claudin18.2 [11] = molecular target: T1, human Claudin18.2; assay: cell-based or functional assay; remark: listed apart in the source
human Claudin18.2 [12] = molecular target: T1, human Claudin18.2; assay: cell-based or functional assay; remark: listed apart in the source
human Claudin18.2 [13] = molecular target: T1, human Claudin18.2; assay: cellular ELISA on fixed L929-Claudin 18.2 cells; remark: listed apart in the source
Procedure: as §2, with “The reactions were incubated at 37° C. for 20 min and stopped with 50 μL 2 mol/L H₂SO₄.” left out

human Claudin18.2 [14] = molecular target: T1, human Claudin18.2; assay: flow cytometry on HEK293T-Claudin 18.2 cells
Procedure: HEK293T-Claudin 18.2 cells were detached and centrifuged, followed by washing for twice with PBS. And then the cells were resuspended in PBS containing 1% BSA and were plated into 96-well tip bottom plate at 300000 cells per well in a volume of 50 μl for 20 wells in total. […] Human IgG was served as negative control. The reactions were mixed well and incubated for 1 h at 4° C. in the dark. Following by three times of washing with PBS, the FITC-labelled anti-human Fc secondary antibody (Biolegend, 409322) was added and incubated for 0.5h in the dark. Detection was performed by flow cytometry (Beckman, Cytoflex) after washing for three times with PBS.

- EC50 (human Claudin18.2 [1]): 3.64 nM
- Max MFI (human Claudin18.2 [1]): 3.62e+06 MFI
- binding result (human Claudin18.1 [2]): no binding (tested: about 50 nM)
B1: mouse antibody 6B9.22 (antibody, V domains shown)
VH: QVQLQQSGAELVKPGASVKMSCKAFGYTFTSYPIEWMKQNHGKSLEWIGNFHPYNDDTKYNEKFKGKAKLTVEKSSSTVYLELSRLTSDDSAVYYCARTYYGNSFAYWGQGTLVTVSS
VL: DIVMTQSPSSLTVTAGEKVTMSCKSSQSLLNSGNQKNYLTWYQQKPGQPPKLLIYWASSRDSGVPHRFTGSGSGTDFTLTISSVQAEDLAFYYCQNDYFYPFTFGAGTKLELK
notes: Purified from hybridoma

- binding result (human Claudin18.1 [3]): no binding (tested: 1000 nM)
- Max MFI (human Claudin18.2 [4]): 1.13e+07 MFI
- EC50 (human Claudin18.2 [5]): 0.09 nM
- Max Signal Value (OD450) (human Claudin18.2 [5]): 0.8 OD450
- CDC activity on HEK293T-Claudin 18.2 cells, fold against IMAB362 (human Claudin18.2 [6]): 3.5 fold
- EC50 (human Claudin18.2 [7]): 0.1 nM
- ADCC EC50, Ba/F3-Claudin18.2 target cells, NK-92MI_mCD16 effectors (human Claudin18.2 [8]): 0.041 µg/mL
- ADCC EC50 on HEK293T-Claudin 18.2 cells (NK92MI-CD16a, LDH) (human Claudin18.2 [9]): 0.0528 µg/mL
- ADCC EC50 on KATOIII-Claudin 18.2 cells (NK92MI-CD16a, LDH) (human Claudin18.2 [9]): 0.00359 µg/mL
- ADCC EC50 on L929-Claudin 18.2 cells (NK92MI-CD16a, LDH) (human Claudin18.2 [9]): 0.00239 µg/mL
- ADCC EC50 on NUGC-4 cells (NK92MI-CD16a, LDH) (human Claudin18.2 [9]): 0.134 µg/mL
- EC50 (human Claudin18.2 [10]): 0.413 nM
B2: humanized antibody 1E9.2-hz11 (antibody, human IgG1, kappa, V domains shown)
VH: EVQLVESGGGLVKPGGSLRLSCAASGFSFSNSAMSWVRQAPGKGLEWVSTISSGDSYTYYADSVKGRFTISRDNAKNSLYLQMNSLRAEDTAVYYCARQGYGNALDYWGQGTLVTVSS
VL: DIVMTQSPDSLAVSLGERATINCKSSQSLLNSGNQKNYLTWYQQKPGQPPKLLIYWSSTRESGVPDRFSGSGSGTDFTLTISSLQAEDFAVYYCQNDYYYPLTFGGGTKVEIKR
notes: human IgG1 / kappa
- ADCC Max killing rate %, Ba/F3-Claudin18.2 target cells (human Claudin18.2 [8]): 60.2%

More lines, now with the values behind:

B3: humanized antibody 2C6.9-hz21 (antibody, human IgG1, kappa, V domains shown)
VH: QVQLQESGPGLVKPSETLSLTCTVSGFSLTRYGVSWIRQPPGKGLEWIGVIWGEGNTNYNPSLKSRVTISKDSSKSQVSLKLSSVTAADTAVYYCARVNFGNALDYWGQGTLVTVSS
VL: B2 VL with S57A, E61D, F89V, Y98F, Y99I, Y100F
notes: human IgG1 / kappa; also called 2C6.9.2hz21
- CDC EC50 on HEK293T-Claudin 18.2 cells (guinea pig serum, CellTiter-Glo) (human Claudin18.2 [11]): 1.36 µg/mL
- ADCC EC50 on HEK293T-Claudin 18.2 cells (NK92MI-CD16a, LDH) (human Claudin18.2 [12]): 0.0677 µg/mL
- binding result (human Claudin18.1 [3]): no binding (tested: 1000 nM)
- EC50 (human Claudin18.2 [5]): 0.18 nM
- Max Signal Value (OD450) (human Claudin18.2 [5]): 0.8 OD450
- EC50 (human Claudin18.2 [13]): 0.12 nM
- EC50 (human Claudin18.2 [14]): 5.77 nM

B4: humanized antibody 2C6.9-hz11 (antibody, human IgG1, kappa, V domains shown)
VH: B3 VH with E54D
VL: B2 VL with S57A, E61D, F89V, Y98F, Y99I, Y100F
notes: Human IgG1 / kappa constant regions; also called 2C6.9.2hz11
- EC50 (human Claudin18.2 [5]): 0.16 nM
- Max Signal Value (OD450) (human Claudin18.2 [5]): 0.8 OD450

Reference: patent US20250340630A1 (SICHUAN KELUN BIOTECH BIOPHARMACEUTICAL, published 2025)
